Paper PMC4703518

Key:
Unkempt ZnF4-6 = molecular target: T1, Unkempt ZnF4-6 (mouse, UniProt Q8BL48 204-335); experiment: ITC
T1 sequence: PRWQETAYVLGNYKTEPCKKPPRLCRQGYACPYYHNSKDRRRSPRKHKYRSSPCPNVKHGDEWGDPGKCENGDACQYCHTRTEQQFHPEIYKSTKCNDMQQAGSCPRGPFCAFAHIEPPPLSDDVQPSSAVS

Unkempt ZnF1-6 WT = molecular target: T2, Unkempt ZnF1-6 WT (mouse, UniProt Q8BL48 31-335); experiment: EMSA
T2 sequence: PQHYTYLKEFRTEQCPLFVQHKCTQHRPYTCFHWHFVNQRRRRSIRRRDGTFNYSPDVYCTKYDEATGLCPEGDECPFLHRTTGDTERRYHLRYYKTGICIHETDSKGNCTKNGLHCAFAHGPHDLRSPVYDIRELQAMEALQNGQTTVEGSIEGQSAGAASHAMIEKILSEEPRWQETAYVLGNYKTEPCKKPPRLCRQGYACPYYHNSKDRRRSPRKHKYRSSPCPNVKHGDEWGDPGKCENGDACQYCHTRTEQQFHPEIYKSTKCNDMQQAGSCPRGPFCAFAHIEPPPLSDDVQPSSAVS

Unkempt ZnF1-3 = molecular target: T3, Unkempt ZnF1-3 (mouse, UniProt Q8BL48 31-174); experiment: ITC
T3 sequence: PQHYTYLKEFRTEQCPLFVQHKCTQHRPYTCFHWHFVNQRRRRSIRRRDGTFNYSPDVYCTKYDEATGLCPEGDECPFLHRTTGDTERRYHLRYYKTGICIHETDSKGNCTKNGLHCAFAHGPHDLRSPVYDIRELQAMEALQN

## ACUUAGAAUUAUUAAUGA (ssRNA) [HSPA8 URE 18-mer WT]
Unkempt ZnF4-6
  binding result: binds
Unkempt ZnF1-6 WT
  binding result: binds

## ACUCCCAAUUAUUAAUGA (ssRNA) [HSPA8 URE 18-mer UAG-mutated]
Unkempt ZnF1-3
  binding result: binds
